Patent US8394929B2, “Nogo receptor-mediated blockade of axonal growth” (Yale University, priority 2000, dated 2013)

Legend:
3T3 fibroblasts = experiment: 3T3 fibroblast spreading; assay type: cell-based, mouse
Description: (a) is a schematic diagram which summarizes features of the Nogo proteins utilized in this study. (b) is a photograph of NIH-3T3 fibroblasts cultured on surfaces coated with Amino-Nogo, GST-Nogo-66 or no protein and stained for filamentous actin (scale bar, 40 μm). (c) is a photograph of chick E12 dorsal root ganglions cultured on surfaces coated with Amino-Nogo, GST-Nogo-66 or no protein (substrate-bound) or with 100 nM Nogo protein (soluble) (scale bar, 40 μm). (d) is a photograph of a gel and an immunoblot where purified Amino-Nogo-Myc-His protein was subjected to SDS-PAGE and stained with Commassie Brilliant Blue (CBB) or immunoblotted with anti-Myc antibodies (Myc) (molecular weight markers of 200, 116, 97, 65 & 45 kDa are at left). (e) is a graph displaying experimental data where the percentage of 3T3 fibroblasts with an area greater than 1200 μm^2 (spread) was measured from experiments as in (b) on Nogo-coated surfaces (black) or with soluble 100 nM Nogo preparations (blue) (AM, Amino-Nogo; AM+Myc, Amino-Nogo preincubated with anti-Myc antibody; AM+Myc+Mo, AM+Myc preincubated with anti-mouse IgG antibody; Myc+Mo, anti-Myc antibody plus anti-murine IgG antibody). (f) is a graph displaying experimental data where the percentage of spread COS-7 cells was determined after culture on Nogo-coated surfaces or with soluble 100 nM Nogo preparations. (g) is a graph displaying experimental data where the effects of purified preparations of GST-Nogo-66 or Amino-Nogo on growth cone morphology was assessed in E12 dorsal root ganglion cultures at the indicated concentrations after thirty minutes. […] (h) is a graph displaying experimental data where the neurite outgrowth per cell in […] dorsal root ganglion cultures was quantitated from experiments as in (c) on Nogo-coated surfaces or with soluble 100 nM Nogo preparations. (i) is a graph displaying experimental data where the effects of Nogo preparations on neurite outgrowth in cerebellar granule neurons was measured.
Assays of Nogo-A function have included growth cone collapse, neurite outgrowth, and fibroblast spreading with substrate-bound and soluble protein preparations (Caroni & Schwab, (1988) J. Cell Biol. 106, 1281-1288; GrandPré et al., (2000) Nature 403, 439-444; Chen et al., (2000) Nature 403, 434-439; Prinjha et al., (2000) Nature 403, 483-484). […] Since NI250 preparations and full length Nogo-A are non-permissive for 3T3 spreading, it was necessary to consider whether different domains of Nogo might subserve this in vitro activity. To facilitate a comparison of different Nogo-A domains, the acidic amino terminal 1040 amino acid fragment (Amino-Nogo) was expressed as a Myc-his tagged protein in HEK293T cells (FIG. 1d). The Nogo protein is present in cytosolic fractions. […]

COS-7 cells = experiment: COS-7 cell spreading; assay type: cell-based
Description: (§1) (a) is a schematic diagram which summarizes features of the Nogo proteins utilized in this study. (b) is a photograph of NIH-3T3 fibroblasts cultured on surfaces coated with Amino-Nogo, GST-Nogo-66 or no protein and stained for filamentous actin (scale bar, 40 μm). (c) is a photograph of chick E12 dorsal root ganglions cultured on surfaces coated with Amino-Nogo, GST-Nogo-66 or no protein (substrate-bound) or with 100 nM Nogo protein (soluble) (scale bar, 40 μm). […] (e) is a graph displaying experimental data where the percentage of 3T3 fibroblasts with an area greater than 1200 μm^2 (spread) was measured from experiments as in (b) on Nogo-coated surfaces (black) or with soluble 100 nM Nogo preparations (blue) (AM, Amino-Nogo; AM+Myc, Amino-Nogo preincubated with anti-Myc antibody; AM+Myc+Mo, AM+Myc preincubated with anti-mouse IgG antibody; Myc+Mo, anti-Myc antibody plus anti-murine IgG antibody). (f) is a graph displaying experimental data where the percentage of spread COS-7 cells was determined after culture on Nogo-coated surfaces or with soluble 100 nM Nogo preparations. (g) is a graph displaying experimental data where the effects of purified preparations of GST-Nogo-66 or Amino-Nogo on growth cone morphology was assessed in E12 dorsal root ganglion cultures at the indicated concentrations after thirty minutes. […]

[1] = tested on: chick dorsal root ganglion neurons; experiment: Neurite outgrowth assay in chick DRG neurons; assay type: cell-based
Description: (§2) For all experiments involving cell culture, the following methods were employed. The culture of embryonic chick E10 and E12 dorsal root ganglion explants and dissociated neurons utilized methods described for E7 dorsal root ganglion cultures (Takahashi et al., (1998) Nature Neurosci. 1, 487-493; Takahashi et al., (1999) Cell 99, 59-69; Goshima et al., (1995) Nature 376, 509-514; Jin & Strittmatter, (1997) J. Neurosci. […]). NGF-differentiated PC12 cells were cultured as described (Strittmatter et al., (1994) J. Neurosci. 14, 2327-2338). Embryonic spinal cord explants (rat E10 or chick E5) were cultured for 7-14 days in the presence of PDGF-AA to induce differentiation of some cells into mature oligodendrocytes (Vartanian et al., (1999) Proc. Natl. Acad. Sci. USA 96, 731-735). The procedure for growth cone collapse assays is identical to that for analysis of Sema3A-induced growth cone collapse (Takahashi et al., (1998) Nature Neurosci. 1, 487-493; Takahashi et al., (1999) Cell 99, 59-69; Goshima et al., (1995) Nature 376, 509-514; Jin & Strittmatter, (1997) J. Neurosci. 17, 6256-6263). The method for analysis of total neurite outgrowth has also been described (Goshima et al., (1995) Nature 376, 509-514; Jin & Strittmatter, (1997) J. Neurosci. 17, 6256-6263; Strittmatter et al., (1994) J. Neurosci. 14, 2327-2338). In outgrowth assays, proteins and peptides were added one hour after plating to minimize any effect on the total number of adherent cells. To test the effect of substrate-bound GST or GST-Nogo, the protein solutions were dried on poly-L-lysine coated glass, washed and then coated with laminin. For E12 cultures, the neuronal identity of cells was verified by staining with anti-neurofilament antibodies (2H3, Develomental Studies Hybridoma Bank) and neurites were traced by observation of rhodamine-phalloidin staining of F-actin in processes.
For neurite outgrowth assays, plastic chamber slides were coated with 100 μg ml^−1 poly-L-lysine, washed, and dried. 3 μl drops of PBS containing GST-Nogo-66 were spotted and dried. Slides were then rinsed and coated with 10 μg ml fs24^−1 laminin before addition of dissociated E12 chick DRGs. AP-fusion proteins were added at the time of cell plating. Cultures were grown for 5-7 h after which neurite outgrowth was assessed.

[2] = tested on: chick E12 dorsal root ganglion growth cones; experiment: Growth cone collapse assay in chick dorsal root ganglion explants; assay type: cell-based; conditions: soluble form at 100 nM; chick E12 DRG
Description: as §2
The expression of recombinant Nogo in HEK293T cells allows a rigorous test of whether this protein has axon outgrowth inhibiting effects. Washed membrane fractions from vector- or hNogo-A-Myc-transfected HEK293T cells were added to chick E12 dorsal root ganglion explant cultures. Growth cone morphology was assessed after a thirty minute incubation at 37° C. by fixation and rhodamine-phalloidin staining.
Briefly, for growth cone collapse, DRG explants were plated on plastic chamber slides precoated with 100 μg ml^−1 poly-L-lysine and 10 μg ml^−1 laminin. Cultures were grown 14-16 h prior to treatment.

[3] = tested on: Mouse P4 cerebellar granule neurons; experiment: Cerebellar granule neuron axon outgrowth; assay type: cell-based
Description: as §1

[4] = dimerized with anti-Myc antibody
[5] = substrate-bound / coated surfaces

B1: Amino-Nogo: acidic amino terminal 1040 amino acid fragment of Nogo-A expressed as a Myc-his tagged protein in HEK293T cells (protein, UniProt Q9NQC3 1-1040, looked up, fragment)
chain: MEDLDQSPLVSSSDSPPRPQPAFKYQFVREPEDEEEEEEEEEEDEDEDLEELEVLERKPAAGLSAAPVPTAPAAGAPLMDFGNDFVPPAPRGPLPAAPPVAPERQPSWDPSPVSSTVPAPSPLSAAAVSPSKLPEDDEPPARPPPPPPASVSPQAEPVWTPPAPAPAAPPSTPAAPKRRGSSGSVDETLFALPAASEPVIRSSAENMDLKEQPGNTISAGQEDFPSVLLETAASLPSLSPLSAASFKEHEYLGNLSTVLPTEGTLQENVSEASKEVSEKAKTLLIDRDLTEFSELEYSEMGSSFSVSPKAESAVIVANPREEIIVKNKDEEEKLVSNNILHNQQELPTALTKLVKEDEVVSSEKAKDSFNEKRVAVEAPMREEYADFKPFERVWEVKDSKEDSDMLAAGGKIESNLESKVDKKCFADSLEQTNHEKDSESSNDDTSFPSTPEGIKDRSGAYITCAPFNPAATESIATNIFPLLGDPTSENKTDEKKIEEKKAQIVTEKNTSTKTSNPFLVAAQDSETDYVTTDNLTKVTEEVVANMPEGLTPDLVQEACESELNEVTGTKIAYETKMDLVQTSEVMQESLYPAAQLCPSFEESEATPSPVLPDIVMEAPLNSAVPSAGASVIQPSSSPLEASSVNYESIKHEPENPPPYEEAMSVSLKKVSGIKEEIKEPENINAALQETEAPYISIACDLIKETKLSAEPAPDFSDYSEMAKVEQPVPDHSELVEDSSPDSEPVDLFSDDSIPDVPQKQDETVMLVKESLTETSFESMIEYENKEKLSALPPEGGKPYLESFKLSLDNTKDTLLPDEVSTLSKKEKIPLQMEELSTAVYSNDDLFISKEAQIRETETFSDSSPIEIIDEFPTLISSKTDSFSKLAREYTDLEVSHKSEIANAPDGAGSLPCTELPHDLSLKNIQPKVEEKISFSDDFSKNGSATSKVLLLPPDVSALATQAEIESIVKPKVLVKEAEKKLPSDTEKEDRSPSAIFSAELSKTSVVDLLYWRDIKKTGVVFGASLFLLLSLTVFSIVSVT
modifications: Myc-His tag
notes: acidic amino terminal 1040 amino acid fragment of Nogo-A expressed as a Myc-his tagged protein in HEK293T cells
- 3T3 spreading (in words) (3T3 fibroblasts; [4]): inhibits
- non-neuronal cell spreading (in words) (3T3 fibroblasts; soluble, 100 nM): does not significantly modulate
- 3T3 fibroblast spreading (in words) (3T3 fibroblasts; [5]): fail to support 3T3 fibroblast spreading
- COS-7 spreading (in words) (COS-7 cells; [4]): inhibits
- non-neuronal cell spreading (in words) (COS-7 cells; soluble, 100 nM): does not significantly modulate
- dorsal root ganglion axon outgrowth (in words) ([1]; Amino-Nogo with anti-Myc antibody, further aggregated by anti-Mouse IgG antibody): significantly reduces
- neurite/axon outgrowth (in words) ([1]; soluble protein or peptide added to culture): does not significantly modulate
- neurite/axon outgrowth (in words) [1, 5]: axonal outgrowth is reduced to low levels
- growth cone morphology (in words) [2]: does not significantly modulate
- cerebellar axon outgrowth (in words) [3, 4]: tends to reduce cerebellar axon outgrowth
- cerebellar axon outgrowth (in words) ([3]; further aggregated by anti-Mouse IgG antibody): significantly reduces
